Measured values reported in US20030166021A1 (WISTAR INSTITUTE OF ANATOMY AND BIOLOGY, published 2003).
Ends that are not written are not given here.

T1: protein kinase C (PKC) peptide FTRHPPVLTPPDQEVI test bait (rat, also: fused to LexA DNA binding domain (order, linker not given here))
T1 construct: Negative control bait in the two hybrid mating test; also called peptide derived from rat protein kinase Cβ2
T1 chain: FTRHPPVLTPPDQEVI

T2: cell cycle protein p107 (UniProt P28749 1-1068, limits assumed)
T2 sequence (looked up): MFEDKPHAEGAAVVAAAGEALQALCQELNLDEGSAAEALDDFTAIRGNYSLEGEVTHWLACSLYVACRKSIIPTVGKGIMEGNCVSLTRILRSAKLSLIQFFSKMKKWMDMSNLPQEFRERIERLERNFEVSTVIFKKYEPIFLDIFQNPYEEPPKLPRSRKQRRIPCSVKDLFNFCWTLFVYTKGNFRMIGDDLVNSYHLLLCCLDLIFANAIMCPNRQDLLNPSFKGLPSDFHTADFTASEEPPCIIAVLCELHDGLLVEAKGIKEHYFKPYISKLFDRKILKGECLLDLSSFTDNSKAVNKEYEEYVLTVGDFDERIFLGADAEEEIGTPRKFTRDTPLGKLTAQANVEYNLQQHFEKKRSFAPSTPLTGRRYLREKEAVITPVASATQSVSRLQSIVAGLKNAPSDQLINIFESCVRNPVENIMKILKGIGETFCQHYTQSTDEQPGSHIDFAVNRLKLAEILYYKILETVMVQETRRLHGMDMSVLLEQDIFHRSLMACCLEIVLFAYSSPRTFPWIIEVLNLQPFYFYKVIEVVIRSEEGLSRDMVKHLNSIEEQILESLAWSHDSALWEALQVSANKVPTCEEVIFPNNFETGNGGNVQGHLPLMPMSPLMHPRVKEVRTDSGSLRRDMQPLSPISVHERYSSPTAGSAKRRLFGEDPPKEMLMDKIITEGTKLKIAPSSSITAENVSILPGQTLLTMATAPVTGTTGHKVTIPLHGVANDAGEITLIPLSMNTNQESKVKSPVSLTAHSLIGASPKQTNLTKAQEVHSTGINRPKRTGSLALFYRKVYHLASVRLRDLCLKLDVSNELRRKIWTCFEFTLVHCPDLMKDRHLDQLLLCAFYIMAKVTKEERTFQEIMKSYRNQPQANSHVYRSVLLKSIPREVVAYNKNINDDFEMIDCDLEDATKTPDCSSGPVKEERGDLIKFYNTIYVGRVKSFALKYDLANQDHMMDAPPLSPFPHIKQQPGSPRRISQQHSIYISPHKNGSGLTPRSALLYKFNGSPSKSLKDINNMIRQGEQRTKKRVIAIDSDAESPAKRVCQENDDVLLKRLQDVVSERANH

B1: murine Bin1 135 amino acid polypeptide (clone #99 ORF) as VP16 fusion from the two hybrid cDNA library (other)
chain: EIRVNHEPEPASGASPGAAIPKSPSQPAEASEVVGGAQEPGETAASEATSSSLPAVVVETFSATVNGAVEGSAGTGRLDLPPGFMFKVQAQHDYTATDTDELQLKAGDVVLVIPFQNPEEQDEGWLMGVKESD
notes: Prey of the yeast two hybrid screen
B2: GST-ATG99 polypeptide (glutathione-S-transferase fusion of the 135 aa murine Bin1 polypeptide) (other)
chain: EIRVNHEPEPASGASPGAAIPKSPSQPAEASEVVGGAQEPGETAASEATSSSLPAVVVETFSATVNGAVEGSAGTGRLDLPPGFMFKVQAQHDYTATDTDELQLKAGDVVLVIPFQNPEEQDEGWLMGVKESD
notes: Expressed in E. coli, purified on glutathione-Sepharose; not shown: glutathione-S-transferase of vector pGEX-2T (Pharmacia); 15 amino acid N-terminal extension with initiator methionine (3 amino acids from E47 and 12 amino acids from VP16); lett

Experiments:
[1] = target: T3, LexA-MB1 fusion protein (human c-Myc Myc box 1 peptide, amino acids 47-62) (human); assay: yeast two hybrid, mating test with LexA baits
T3 construct: also called MB1 bait; lexA-MB1 peptide construct

[2] = target: T1, protein kinase C (PKC) peptide …; assay: yeast two hybrid mating test with negative control baits
[3] = target: T4, small GTP-binding protein RhoB test bait (UniProt P62745 1-196, limits assumed); assay: as above
T4 construct: Negative control bait in the two hybrid mating test

[4] = target: T5, SV40 large T antigen (vector pTag) (SV40, UniProt P03070 1-708); assay: GST pull-down of 35S-labelled IVT protein
T5 construct: 35S-labelled in vitro translated protein

[5] = target: T6, c-Myc with both MB1 (49-101) and MB2 (120-140) deletions (human, UniProt P01106 1-48; P01106 102-119; P01106 141-439); assay: GST pull-down of 35S-labelled IVT protein
T6 construct: range 1-48; also called CMV Hm subclone containing both deletions

[6] = target: T7, USF (vector CMV-USF) (UniProt P22415 1-310, limits assumed); assay: GST pull-down of 35S-labelled IVT protein
T7 construct: 35S-labelled in vitro translated protein

[7] = target: Max (UniProt P61244 1-160, limits assumed); assay: GST pull-down
[8] = target: extracellular protein PAI-1 (UniProt P05121 24-402, limits assumed); assay: GST pull-down
[9] = target: transcription factor YY 1 (UniProt P25490 1-414, limits assumed); assay: GST pull-down
[10] = target: T2, cell cycle protein p107; assay: GST pull-down
[11] = target: small GTP-binding protein RhoB (tested for GST-ATG99 interaction) (UniProt P62745 1-196, limits assumed); assay: GST pull-down
small GTP-binding protein RhoB (tested for GST-ATG99 interaction), sequence (P62745 whole entry): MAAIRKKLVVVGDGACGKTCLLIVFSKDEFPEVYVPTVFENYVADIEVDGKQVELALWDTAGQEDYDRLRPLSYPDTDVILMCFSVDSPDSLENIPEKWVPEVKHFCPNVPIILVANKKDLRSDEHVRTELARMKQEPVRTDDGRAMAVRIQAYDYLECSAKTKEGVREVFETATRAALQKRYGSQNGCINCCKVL

extracellular protein PAI-1, sequence (P05121 24-402 limits assumed): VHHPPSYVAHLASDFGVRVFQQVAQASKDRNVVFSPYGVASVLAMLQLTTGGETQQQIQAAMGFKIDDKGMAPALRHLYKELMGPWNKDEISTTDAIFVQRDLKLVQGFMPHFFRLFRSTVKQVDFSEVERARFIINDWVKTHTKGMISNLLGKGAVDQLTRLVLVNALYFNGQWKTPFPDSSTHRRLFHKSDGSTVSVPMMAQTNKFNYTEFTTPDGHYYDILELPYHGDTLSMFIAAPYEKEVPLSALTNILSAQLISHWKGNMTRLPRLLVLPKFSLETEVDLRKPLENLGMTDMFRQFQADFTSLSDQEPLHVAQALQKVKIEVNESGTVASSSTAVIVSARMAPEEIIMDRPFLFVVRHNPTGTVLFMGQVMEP
T4 sequence (P62745 whole entry): as the sequence (P62745 whole entry) above
transcription factor YY 1, sequence (P25490 whole entry): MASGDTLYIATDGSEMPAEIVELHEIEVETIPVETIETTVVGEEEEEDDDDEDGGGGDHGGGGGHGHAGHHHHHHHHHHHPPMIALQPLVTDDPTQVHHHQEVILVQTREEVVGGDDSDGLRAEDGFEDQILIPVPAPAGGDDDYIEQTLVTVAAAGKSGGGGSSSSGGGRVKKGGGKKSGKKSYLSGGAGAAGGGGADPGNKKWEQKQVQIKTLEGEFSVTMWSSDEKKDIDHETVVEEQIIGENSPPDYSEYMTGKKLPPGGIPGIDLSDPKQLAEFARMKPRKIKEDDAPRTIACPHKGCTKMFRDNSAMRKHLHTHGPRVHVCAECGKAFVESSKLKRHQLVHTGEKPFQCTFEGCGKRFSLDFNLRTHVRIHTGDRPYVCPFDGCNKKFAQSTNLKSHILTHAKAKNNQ
T6 sequence (P01106 other isoform, or with tags, fused parts or gaps limits assumed): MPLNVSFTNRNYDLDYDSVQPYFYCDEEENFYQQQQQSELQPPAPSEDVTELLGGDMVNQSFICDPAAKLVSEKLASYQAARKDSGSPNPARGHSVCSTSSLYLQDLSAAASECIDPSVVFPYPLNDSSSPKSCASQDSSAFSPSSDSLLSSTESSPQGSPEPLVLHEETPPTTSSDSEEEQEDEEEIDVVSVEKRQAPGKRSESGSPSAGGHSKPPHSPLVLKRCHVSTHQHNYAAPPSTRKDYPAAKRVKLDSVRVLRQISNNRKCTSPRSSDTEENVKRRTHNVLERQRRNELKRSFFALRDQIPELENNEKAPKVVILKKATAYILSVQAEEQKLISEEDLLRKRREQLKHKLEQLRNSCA
T7 sequence (P22415 whole entry): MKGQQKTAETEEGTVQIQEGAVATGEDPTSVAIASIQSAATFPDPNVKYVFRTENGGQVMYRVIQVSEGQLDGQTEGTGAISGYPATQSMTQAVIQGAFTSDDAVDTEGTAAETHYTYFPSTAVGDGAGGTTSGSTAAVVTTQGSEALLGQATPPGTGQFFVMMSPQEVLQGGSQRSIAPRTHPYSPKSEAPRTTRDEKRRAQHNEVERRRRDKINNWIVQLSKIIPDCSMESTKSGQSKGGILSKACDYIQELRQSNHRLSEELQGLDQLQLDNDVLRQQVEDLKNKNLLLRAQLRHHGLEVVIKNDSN
Max, sequence (P61244 whole entry): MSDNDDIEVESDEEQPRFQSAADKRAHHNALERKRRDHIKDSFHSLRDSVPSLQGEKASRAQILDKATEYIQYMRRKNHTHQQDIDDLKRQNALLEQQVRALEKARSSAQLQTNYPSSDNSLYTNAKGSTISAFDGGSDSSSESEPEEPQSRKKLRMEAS

Row | Binder | binding result [1] | binding result [2] | binding result [3] | binding result [4] | binding result [5] | binding result [6] | binding result [7] | binding result [8] | binding result [9] | binding result [10] | binding result [11]
1 | B1 | binds | no binding | no binding | – | – | – | – | – | – | – | –
2 | B2 | – | – | – | no binding | no binding | no binding | no binding | no binding | no binding | no binding | no binding
